Data as given in publication PMC6242907, “Molecular basis of maintaining an oxidizing environment under anaerobiosis by soluble fumarate reductase” (Nature Communications, 2018).

How the values were obtained:
[1] = molecular target: T1, Osm1 (residues 32-501), 6x His-tagged (S. cerevisiae, UniProt P21375 32-501); assay: SPR; Biacore T-200, CM5 chip; MBP-Ero1 immobilised by amine coupling (1500 RU); Osm1 or chimeric Osm1 injected in PBS at 6.25 to 200 µM, 30 µL/min, 25 °C; affinity (steady-state) fitting; conditions: both partners purified
T1 construct: Osm1, soluble fumarate reductase of S. cerevisiae, amino acids 32-501, cloned in pET28a (NheI/XhoI); no removal of the tag is described except by trypsin for crystallisation; A31 is an extra residue from the cloning construct; The limits of the pET28a Osm1 used in the pull-down are not repeated in the methods; also called holo-Osm1; WT Osm1; source: also in lysate of BL21(DE3) co-expressing …
T1 sequence (P21375 32-501): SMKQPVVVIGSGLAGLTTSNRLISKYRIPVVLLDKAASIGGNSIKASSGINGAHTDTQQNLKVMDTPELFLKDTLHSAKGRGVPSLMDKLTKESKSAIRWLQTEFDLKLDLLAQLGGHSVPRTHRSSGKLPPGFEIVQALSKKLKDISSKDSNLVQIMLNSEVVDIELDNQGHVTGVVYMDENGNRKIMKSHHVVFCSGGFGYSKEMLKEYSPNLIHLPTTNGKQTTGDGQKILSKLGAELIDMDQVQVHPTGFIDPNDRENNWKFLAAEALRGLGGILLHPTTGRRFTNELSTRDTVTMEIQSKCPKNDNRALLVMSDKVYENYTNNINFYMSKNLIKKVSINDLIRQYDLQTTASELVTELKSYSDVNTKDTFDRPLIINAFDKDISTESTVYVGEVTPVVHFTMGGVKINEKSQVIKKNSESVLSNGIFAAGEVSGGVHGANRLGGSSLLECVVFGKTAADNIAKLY

[2] = molecular target: T1, Osm1 (residues 32-501), 6x His-tagged; assay: ITC; nano-ITC; 2.5 µL injections of 1.6 mM Osm1 into 40 µM Ero1 in PBS; conditions: both partners purified

B1: His6-maltose-binding protein (H6-MBP)-fused Ero1 (56-424) (enzyme, yeast, UniProt Q03103 56-424, looked up)
chain: FNELNAINENIRDDLSALLKSDFFKYFRLDLYKQCSFWDANDGLCLNRACSVDVVEDWDTLPEYWQPEILGSFNNDTMKEADDSDDECKFLDQLCQTSKKPVDIEDTINYCDVNDFNGKNAVLIDLTANPERFTGYGGKQAGQIWSTIYQDNCFTIGETGESLAKDAFYRLVSGFHASIGTHLSKEYLNTKTGKWEPNLDLFMARIGNFPDRVTNMYFNYAVVAKALWKIQPYLPEFSFCDLVNKEIKNKMDNVISQLDTKIFNEDLVFANDLSLTLKDEFRSRFKNVTKIMDCVQCDRCRLWGKIQTTGYATALKILFEINDADEFTKQHIVGKLTKYELIALLQTFGRLSESIESVNMFEKMYGKRL
notes: Ero1, ER-resident flavoenzyme of yeast, residues 56-424; FAD cofactor; Uncleaved fusion (83 kDa) immobilised on the CM5 chip; a TEV site lies between H6-MBP and Ero1; The only purified MBP-Ero1 described in the methods is the H6-MBP fusion; also called MBP-Ero1; purified MBP-Ero1; source: E. coli Origami B(DE3), purified (HiTrap Ni2+, amylose)
Work on B1 yielded a Kd [1] of ~200 µM.

B2: Ero1 (56-424), H6-MBP cleaved off (enzyme, yeast, UniProt Q03103 56-424, looked up)
chain: B1 chain
notes: Ero1, ER-resident flavoenzyme of yeast, residues 56-424; FAD cofactor; The ITC methods name only 'Ero1'; also called recombinant Ero1; source: E. coli Origami B(DE3), purified (HiTrap Ni2+, amylose, TEV cleavage, Ni2+ flow-through)
With B2 the Kd [2] was ~150 µM.
